In US20220249611A1 (Stanford University, published 2022):
Each block holds one molecule with its values, some of them ahead of it. HA tag and linker = not defined here

How the values were obtained:
[1] = target: FGFRs expressed on NIH3T3 cells; assay: cell-based or functional assay
[2] = target: FGFRs expressed on NIH3T3 cells; assay: equilibrium binding titration on NIH3T3 cells at 4 C, flow cytometry with anti-His antibody
[3] = target: T1, human FGFR1 beta (IIIc)-Fc (R&D Systems) (human, UniProt P11362-14 22-285, limits assumed); assay: flow cytometry, yeast-displayed peptide with soluble FGFR1-Fc
T1 construct: Bought reagent; also called FGFR1-Fc; Fc fusion of FGFR1; not shown: Fc domain (detected with anti-human IgG)
T1 sequence (looked up): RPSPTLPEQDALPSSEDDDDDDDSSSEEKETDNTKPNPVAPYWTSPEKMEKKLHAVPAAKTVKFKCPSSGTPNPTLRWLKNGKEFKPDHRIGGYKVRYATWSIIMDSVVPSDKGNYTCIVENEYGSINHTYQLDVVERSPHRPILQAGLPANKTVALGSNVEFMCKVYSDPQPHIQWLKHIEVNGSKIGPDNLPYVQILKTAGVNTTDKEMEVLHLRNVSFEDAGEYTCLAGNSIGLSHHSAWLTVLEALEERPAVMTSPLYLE
Description: FIG. 15. Non-binding of peptide artifacts to FGFR1-Fc. Yeast cells expressing RTTTS or HTTS peptides on their cell surface were incubated with 10 nM FGFRT-Fc. Cells were stained with fluorescent antibodies for expression (α-c-myc) and binding (α-FGFR1-Fc).
50,000 induced yeast cells were incubated with various concentrations of FGFR1-Fc in phosphate-buffered saline with 1 g/L BSA (PBSA) at room temperature. Cells were incubated in sufficiently large volumes to avoid ligand depletion and long enough times (typically 3 to 24 hours) to reach equilibrium. During the last 30 minutes of incubation, yeast cells were incubated with 1:2500 dilution of chicken anti-c-Myc (Invitrogen) in PBSA. Yeast were pelleted, washed, then incubated with 1:200 dilution of secondary antibodies on ice for 10 min: anti-Human IgG-FITC (Sigma Aldrich) against FGFR1-Fc and anti-chicken-IgY-PE (Santa Cruz Biotechnology) against anti-c-myc. Yeast were washed, pelleted, and resuspended in PBSA immediately before analysis by flow cytometry using EMD Millipore Guava EasyCyte. Flow cytometry data were analyzed using FlowJo (v7.6.1). Binding curves were plotted and Kd values were obtained using GraphPad Prism 6.

Kd [2]: 10 nM
Molecule: recombinant soluble wild-type FGF1 with N-terminal 6x His tag (E. coli, pBAD/His B) (from UniProt P05230 16-155) (ligand)

binding result [3]: no binding (tested: 10 nM)
B1: yeast-displayed peptide artifact HTTS (peptide)
chain: {Aga2p-HA tag and linker}-HTTS-{c‑myc tag}
modifications: reading uncertain
notes: not shown: Aga2p of S. cerevisiae, yeast display fusion partner (pCT vector); HA tag and vector linker; C-terminal c-myc tag

The remaining lines, values behind:

Molecule: recombinant soluble FGF1 L131R mutant with N-terminal 6x His tag (E. coli, pBAD/His B) (from UniProt P05230 16-155) (ligand)
inhibition of ERK phosphorylation induced by 1 nM wild type FGF1 in NIH3T3 cells (Western blot against phosphoERK), IC50 [1]: 1 nM | Kd [2]: 10 nM

B2: yeast-displayed peptide artifact RTTTS (peptide)
chain: {Aga2p-HA tag and linker}-RTTTS-{c‑myc tag}
modifications: reading uncertain
notes: as for B1
binding result [3]: no binding (tested: 10 nM)
